This is an account of results in patent publication US7531500B2, “Preventing airway mucus production by administration of EGF-R antagonists” (The Regents of the University of California, priority 1998, dated 2009).

One assay relates to NCI-H292 cells. Kind of assay: Immunoassay of MUC5AC protein in NCI-H292 cells (Example 2). It counts as cell-based, human. Here is the method: Cell Culture. NCI-H292 cells, a human pulmonary mucoepidermoid carcinoma cell line, were grown in RPMI 1640 medium containing 10% fetal bovine serum, penicillin (100 U/ml), streptomycin (100 μg/ml) and Hepes (25 mM) at 37° C. in a humidified 5% CO2, water-jacketed incubator. Either 6-well culture plates or 8-chamber slides were used to culture the cells. […] The cells were then washed and incubated with fresh medium alone. Experiments were terminated at preselected times (for mRNA, 6 h and 12 h; for protein, 24 h). As controls, cells were incubated with medium alone for same time periods. […] In inhibition studies with blocking antibodies to EGF-R ligands, the supernatants were pretreated with anti-TGFα antibody (Calbiochem) or anti-EGF antibody for 30 min and then added to NCI-H292 cells. The role of oxygen free radicals was examined using scavengers of oxygen free radical DMSO (1%, Sigma), 1,3-dimethyl-2-thiourea (DMTU, 50 mM, Sigma), or superoxide dismutase (SOD, 300 U/ml, Sigma).
Preparation of Cigarette Smoke Solution. Research cigarettes (code2R1, produced for the University of Kentucky Tobacco and Health Research Foundation) were used in the study. Cigarette smoke solution was prepared as previously described (Dusser et al. (1989) J. Clin. Invest. 84:900-906). In brief, cigarette smoke was withdrawn into a polypropylene syringe (35 ml) at a rate of one puff/min (10 times) and bubbled slowly into 20 ml of RPM11640 containing 50 mM Hepes buffer. The smoke solution was then titrated to pH 7,4 and used immediately after preparation.
Immunoassay of MUC5AC Protein. MUC5AC protein was measured as described above. In brief, cell lysates were prepared with PBS at multiple dilutions, and 50 μl of each sample was incubated with bicarbonate-carbonate buffer (50 μl) at 40° C. in a 96-well plate (Maxisorp Nunc, Fisher Scientific, Santa Clara, Calif.), until dry. Plates were washed three times with PBS and blocked with 2% BSA (fraction V, Sigma) for 1 h at room temperature. Plates were again washed three times with PBS and then incubated with 50 μl of mouse monoclonal MUC5AC antibody (1:100) that was diluted with PBS containing 0.05% Tween 20. After 1 h, the wells were washed three times with PBS, and 100 μl horseradish peroxidase-goat anti-mouse IgG conjugate (1:10,000, Sigma) was dispensed into each well. After 1 h, plates were washed three times with PBS. Color reaction was developed with TMB peroxidase solution (Kirkegaard & Perry Laboratories, Gaithersburg, Md.) and stopped with 2N H2SO4. Absorbance was read at 450 nm.

In a further assay the test system is sensitized rats. Description: Goblet cell production in ovalbumin-sensitized rats (asthma model). The format is in vivo, rat. As to conditions: for Goblet cells in tracheal epithelium: counted over 2 mm basal lamina, 5 rats. Here is the method:
Sensitization. Rats were sensitized on days 0 and 10 with intraperitoneal injections of ovalbumin (10 mg, grade V; Sigma, St. Louis, Mo.), complexed with 100 mg of aluminum hydroxide in 0.5 ml of sterile saline, Rats then rested for 10 days. On day 20, ovalbumin was delivered directly into the trachea; animals were challenged with 100 μl of 0.1% ovalbumin in saline by intratracheal instillation three times (days 20, 22 and 24). Rats were euthanized either without challenge (day 20), or 48 h after the third challenge (day 26). This procedure induced goblet cell metaplasia. To block the goblet cell hyperplasia, sensitized rats were pretreated with an EGF-R tyrosine kinase inhibitor, BIBX1522. On days of ovalbumin challenge (days 20, 22 and 24), sensitized rats were pretreated with BIBX1 522 (10 mg/kg, i.p., 1 h before the challenge) and then BIBX1522 was also instilled into the trachea together with ovalbumin (BIBX1522, 10^−5M, 100 μl). BIBX1522 was also injected i.p. every 24 h until the day before the rats were euthanized. After the animals were euthanized, the trachea was removed 48 h after the third challenge.
Tissue preparation. At preselected times during anesthesia, the systemic circulation was perfused with 1% paraformaldehyde in DEPC-treated PBS at a pressure of 120 mmHg. The trachea was then removed and placed in 4% paraformaldehyde for 24 h. After fixation, trachea and lungs were embedded in either JB-4 plus monomer solution A for cell analysis or O.C.T. compound (Sakura Finetek U.S.A., Inc., Torrance, Calif.) for immunohistochemistry and in situ hybridization. The embedded tissues were cut as cross sections ([…] thick) and placed on slides.
Cell analysis. We counted the total number of epithelial cells by counting epithelial cell nuclei over 2 mm of the basal lamina with an oil immersion objective lens (×1000 magnification). The linear length of the basal lamina under each analyzed region of epithelium was determined by tracing the contour of the digitized image of the basal lamina. After instillation of stimuli, “developing” goblet cells form. These cells have Alcian blue/PAS-positive granules, but the size of granules is small, and the number of cytoplasmic granules is few. We call these “developing” goblet cells “pre-goblet cells”, a stage before cells become mature goblet cells. Goblet cells are tall, cuboidal, goblet to low columnar in shape, with abundant Alcian blue/PAS-stained granules filling most of the cytoplasm between the nucleus and the luminal surface. Pre-goblet cells are defined as cells with smaller mucus-stained areas (<1/3 height in epithelium from basement membrane to luminal surface) or with sparsely and lightly Alcian blue/PAS-stained, small granules. Ciliated cells are recognized by their ciliated borders, lightly stained cytoplasm, and large round nuclei. Non-granulated secretory cells are columnar in shape and extend from the lumen to the basal lamina. The cytoplasm stains light pink color, and a few tiny PAS-positive and Alcian blue-negative granules are observed in the cytoplasm. Basal cells are small flattened cells with a large nucleus, located just above the basal lamina but not reaching the airway lumen.
Quantification of goblet cell production. Goblet cell production, was determined by the volume density of Alcian blue/PAS-stained mucosubstances on the mucosal surface epithelium using a semi-automatic imaging system described elsewhere (Weber et al. (1984) Science 224:294-297). We measured the Alcian blue/PAS-positive stained area and the total epithelial area and expressed the data as the percentage of the total area stained by Alcian blue-PAS. The analysis was performed with the public domain NIH Image program (developed at the U.S. National Institute of Health and available from the Internet by anonymous FTP from zippy.nimh.gov or on floppy disk from the National Technical Information Service, Springfield, Va., part number PB95-500195GEI).

As for `CNC(=S)NC` [DMTU, 1,3-dimethyl-2-thiourea], the “MUC5AC synthesis by supernatant of activated neutrophils, cigarette smoke and H2O2” value with NCI-H292 cells (DMSO 1%, DMTU 50 mM, SOD 300 U/ml) is listed as “significantly inhibited”.

Regarding IL-8: recombinant human IL-8 (Genzyme), the “MUC5AC synthesis, stimulus alone without neutrophils” value with NCI-H292 cells (1 h incubation, protein at 24 h, IL-8 10^-8 M, fMLP 10^-8 M, TNFα 20 ng/ml) is “no effect”.

B1: Ova: ovalbumin, grade V (Sigma), used to sensitize and challenge rats (protein, UniProt P01012 2-386, looked up)
Ovalbumin: GSIGAASMEFCFDVFKELKVHHANENIFYCPIAIMSALAMVYLGAKDSTRTQINKVVRFDKLPGFGDSIEAQCGTSVNVHSSLRDILNQITKPNDVYSFSLASRLYAEERYPILPEYLQCVKELYRGGLEPINFQTAADQARELINSWVESQTNGIIRNVLQPSSVDSQTAMVLVNAIVFKGLWEKAFKDEDTQAMPFRVTEQESKPVQMMYQIGLFRVASMASEKMKILELPFASGTMSMLVLLPDEVSGLEQLESIINFEKLTEWTSSNVMEERKIKVYLPRMKMEEKYNLTSVLMAMGITDVFSSSANLSGISSAESLKISQAVHAAHAEINEAGREVVGSAEAGVDAASVSEEFRADHPFLFCIKHIATNAVLFFGRCVSP
Take B1: in the assay with sensitized rats (Ova i.p. + i.t.), the “% of AB/PAS-stained area” value came to 38.7 ± 6.2 %, the “Basal cells in tracheal epithelium” value was found to be 59.8 ± 2.9, the “Ciliated cells in tracheal epithelium” value was 52.4 ± 7.1 and the “Indeterminate cells in tracheal epithelium” value turned out to be 2.6 ± 0.5. Also, in the assay on sensitized rats (Ova i.p. + i.t.), the “Pre-goblet cells in tracheal epithelium” value amounted to 36.0 ± 6.3, the “Secretory cells in tracheal epithelium” value is 49.8 ± 4.2 and the “Total cells in tracheal epithelium” value came to 238.8 ± 4.4. In the assay with sensitized rats (Ova i.p. only), the “% of AB/PAS-stained area” value is recorded as 7.8 ± 2.9%, the “Basal cells in tracheal epithelium” value was found to be 60.2 ± 3.4, the “Ciliated cells in tracheal epithelium” value is on record as 56.4 ± 3.8 and the “Indeterminate cells in tracheal epithelium” value is listed as 1.4 ± 0.2. Also, in the assay on sensitized rats (Ova i.p. only), the “Pre-goblet cells in tracheal epithelium” value is recorded as 13.8 ± 1.4, the “Secretory cells in tracheal epithelium” value worked out at 67.6 ± 7.0 and the “Total cells in tracheal epithelium” value amounted to 204.8 ± 6.6. In addition, in the assay on sensitized rats (Ova sensitization i.p. + i.t.), the “Goblet cells in tracheal epithelium” value was 38.2 ± 6.3. In addition, the “Goblet cells in tracheal epithelium” value with sensitized rats (Ova sensitization i.p. only) was determined as 5.4 ± 1.5.
